Results published in patent US20240383996A1 (SHANGHAI HENLIUS BIOTECH, published 2024).

Experiments:
[1] = target: T1, Human OX40 expressed on transfected Jurkat or CHO cells (human, UniProt P43489 29-277); assay: flow cytometry on human OX40-transfected Jurkat cells, Alexa Fluor488 anti-human IgG Fc, Geo MFI
T1 construct: also called human OX40/Jurkat; human OX40/CHO
T1 sequence: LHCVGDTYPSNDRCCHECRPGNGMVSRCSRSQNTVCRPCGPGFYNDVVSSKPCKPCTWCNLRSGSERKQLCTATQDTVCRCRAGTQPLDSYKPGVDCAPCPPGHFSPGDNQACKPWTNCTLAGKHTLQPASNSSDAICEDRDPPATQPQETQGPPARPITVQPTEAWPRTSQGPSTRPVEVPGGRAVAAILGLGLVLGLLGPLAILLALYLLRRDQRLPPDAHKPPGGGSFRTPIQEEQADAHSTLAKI
Method: FIGS. 2A-2C depict whole cell binding of humanized anti-OX40 antibodies to human or cynomolgus OX40 assessed by flow cytometry. Human OX40-expressing Jurkat cells (FIG. 2A), human OX40-expressing CHO cells (FIG. 2B) and cynomolgus OX40-expressing CHO cells (FIG. 2C) were incubated with indicated anti-OX40 bivalent antibodies, and then stained with Alexa Fluor488 conjugated anti-human IgG Fc antibody. The fluorescence intensity was measured by flow cytometry.
(§1) Bivalent antibodies of these 15 clones were made by fusing VHH to human IgG1 Fc, expressed in ExpiCHO cells, and purified by Protein A affinity column. Binding affinity of the VHH-Fc bivalent antibodies to human or cynomolgus OX40 was evaluated by flow cytometry using Jurkat cells transfected with human OX40 (human OX40/Jurkat) (FIG. 2A), CHO cells transfected with human OX40 (human OX40/CHO) (FIG. 2B), and CHO cells transfected with cynomolgus OX40 (cyno OX40/CHO) (FIG. 2C). These antibodies with indicated concentrations were incubated with the cells in FACS buffer (3% FBS in PBS) on ice for 30 min, and the free antibodies were washed out with FACS buffer. Alexa fluor488 conjugated anti-human IgG Fc antibody (1:500) (Alexa Fluor488 AffiniPure goat anti-human IgG, Fcg fragment specific, Jackson labs) was further incubated with the cells on ice for 30 min. Cells were washed to remove free antibodies prior to FACS analysis using CytoFlex (Beckman Coulter). Binding affinity was calculated using GraphPad Prism three parameter logistic equation.

[2] = target: T1, Human OX40 expressed on transfected …; assay: flow cytometry on human OX40-expressing Jurkat cells, Geo MFI
Method: (§2) FIGS. 4A-4D depict whole cell binding of anti-OX40 antibodies to human and cynomolgus OX40 assessed by flow cytometry.
as §1
(§3) The binding affinity of the anti-OX40 antibodies was further evaluated by flow cytometry using human OX40/Jurkat cells and human OX40/CHO cells using protocols described above. […] The cross-reactivity of the antibodies to cynomolgus OX40 was assessed by FACS analysis using cyno OX40/CHO cells.

[3] = target: T2, Recombinant human OX40 extracellular domain fused to human IgG1 Fc (human, UniProt P43489 29-214); assay: Octet, human OX40 ECD-Fc immobilized on a biosensor chip
T2 construct: Produced in-house; also called OX40 ECD-Fc; human OX40 ECD-Fc; not shown: human IgG1 Fc
T2 sequence: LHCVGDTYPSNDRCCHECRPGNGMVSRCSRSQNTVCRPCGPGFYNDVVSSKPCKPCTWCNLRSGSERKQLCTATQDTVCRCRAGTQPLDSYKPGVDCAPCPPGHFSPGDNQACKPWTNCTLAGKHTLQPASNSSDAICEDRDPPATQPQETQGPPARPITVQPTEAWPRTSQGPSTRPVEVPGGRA
Description: The tetravalent antibodies were produced from transiently transfected ExpiCHO cells, and purified by Protein A affinity column.

[4] = target: T1, Human OX40 expressed on transfected …; assay: flow cytometry on human OX40-expressing CHO cells, Geo MFI
Method: as §2, §1, §3

[5] = target: T1, Human OX40 expressed on transfected …; assay: flow cytometry, whole cell binding to human OX40-expressing Jurkat cells, Geo MFI
[6] = target: T3, Cynomolgus OX40 expressed on transfected CHO cells (cynomolgus); assay: flow cytometry on cynomolgus OX40-expressing CHO cells, Geo MFI
T3 chain: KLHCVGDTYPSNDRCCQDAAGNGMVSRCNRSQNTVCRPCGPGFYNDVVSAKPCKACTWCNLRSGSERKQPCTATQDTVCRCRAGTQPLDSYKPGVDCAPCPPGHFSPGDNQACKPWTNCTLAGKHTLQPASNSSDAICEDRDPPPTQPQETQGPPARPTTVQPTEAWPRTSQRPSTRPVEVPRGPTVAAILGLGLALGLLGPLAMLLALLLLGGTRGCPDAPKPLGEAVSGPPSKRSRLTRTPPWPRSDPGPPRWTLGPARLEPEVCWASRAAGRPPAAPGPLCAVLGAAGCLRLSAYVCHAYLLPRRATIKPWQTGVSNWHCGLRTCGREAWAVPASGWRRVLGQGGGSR
Method: as §2
as §1, with “Cells were washed to remove free antibodies prior to FACS analysis using CytoFlex (Beckman Coulter).” left out
as §3

[7] = target: T1, Human OX40 expressed on transfected …; assay: flow cytometry, whole cell binding to human OX40-expressing Jurkat cells, Geo MFI; remark: listed apart in the source

B1: 4H2 VHH-Fc bivalent antibody (antibody, human IgG1, V domains shown)
VH: EVQLVESGGGLVQPGGSLRLSCAASGPLGYPSIAWFRQAPGKGLEFVSGIAWSTGDTYYADSVKGRFTISRDNSKNTLYLQMNSLRAEDTAVYYCAADTVVHYMGRHDIRDAEEYDYWGQGTLVTVSS
notes: Humanized VHH fused to human IgG1 Fc
[1]
  binding result: binds

B2: 1B3 VHH-Fc bivalent antibody (antibody, human IgG1, V domains shown)
VH: EVQLVESGGGLVQPGGSLRLSCAASGPLGMPSIAWFRQAPGKGLEFVSGIAWSTGDTYYADSVKGRFTISRDNSKNTLYLQMNSLRAEDTAVYYCAADTQVHYMGRHDIRDREEYDYWGQGTLVTVSS
notes: also called 1B3-bivalent
[2]
  EC50: 4.25 nM
[3]
  Kd: 3.83 nM
  koff: 0.000391 s⁻¹
[4]
  EC50: 2.69 nM

B3: 1B3 tetravalent anti-OX40 antibody (1B3 VHH with GS linker on CH1 and on CL of human IgG1) (antibody, V domains shown)
V domain 1: EVQLVESGGGLVQPGGSLRLSCAASGPLGMPSIAWFRQAPGKGLEFVSGIAWSTGDTYYADSVKGRFTISRDNSKNTLYLQMNSLRAEDTAVYYCAADTQVHYMGRHDIRDREEYDYWGQGTLVTVSS
V domain 2: EVQLVESGGGLVQPGGSLRLSCAASGPLGMPSIAWFRQAPGKGLEFVSGIAWSTGDTYYADSVKGRFTISRDNSKNTLYLQMNSLRAEDTAVYYCAADTQVHYMGRHDIRDREEYDYWGQGTLVTVSS
notes: Four-chain format; The heavy and light variable regions of human IgG1 are replaced by the VHH
[5]
  EC50: 0.15 nM
[2]
  EC50: 0.16 nM
[3]
  Kd: 6.57 nM
  koff: 0.000646 s⁻¹
[4]
  EC50: 2.01 nM
[6]
  EC50: 1.93 nM

B4: 1G9B VHH-Fc bivalent antibody (antibody, human IgG1, V domains shown)
VH: EVQLVESGGGLVQPGGSLRLSCAASGPLGYPHIAWFRQAPGKGLEFVSGIAWSGGDSYYADSVKGRFTISRDNSKNTLYLQMNSLRAEDTAVYYCAADTLVHYMGRHDISDREEYDYWGQGTLVTVSS
notes: as for B1
[1]
  binding result: binds

B5: 2D9 VHH-Fc bivalent antibody (antibody, human IgG1, V domains shown)
VH: EVQLVESGGGLVQPGGSLRLSCAASGPLGYPNIAWFRQAPGKGLEFVSGIAWSTGDTYYADSVKGRFTISRDNSKNTLYLQMNSLRAEDTAVYYCAADTVVHYMGRHDIRDREVYDYWGQGTLVTVSS
notes: as for B1
[1]
  binding result: binds

B6: 3B8 VHH-Fc bivalent antibody (antibody, human IgG1, V domains shown)
VH: EVQLVESGGGLVQPGGSLRLSCAASGPLGQPSIAWFRQAPGKGLEFVSGIAWSSGDTYYADSVKGRFTISRDNSKNTLYLQMNSLRAEDTAVYYCAADTRVHYMGRHDIRDREEYDYWGQGTLVTVSS
notes: as for B1
[1]
  binding result: binds

B7: 2D3B VHH-Fc bivalent antibody (antibody, human IgG1, V domains shown)
VH: EVQLVESGGGLVQPGGSLRLSCAASGPLGSPSIAWFRQAPGKGLEFVSGIAWSTGDTYYADSVKGRFTISRDNSKNTLYLQMNSLRAEDTAVYYCAADTVVHYMVRHDIRDRESYDYWGQGTLVTVSS
notes: as for B1
[1]
  binding result: binds

B8: 2B7 tetravalent anti-OX40 antibody (2B7 VHH with GS linker on CH1 and on CL of human IgG1) (antibody, V domains shown)
V domain 1: EVQLVESGGGLVQPGGSLRLSCAASGPLGAPSIAWFRQAPGKGLEFVSGIAWSTGDTYYADSVKGRFTISRDNSKNTLYLQMNSLRAEDTAVYYCAADTSVHYMGRHDIRDYEEYDYWGQGTLVTVSS
V domain 2: EVQLVESGGGLVQPGGSLRLSCAASGPLGAPSIAWFRQAPGKGLEFVSGIAWSTGDTYYADSVKGRFTISRDNSKNTLYLQMNSLRAEDTAVYYCAADTSVHYMGRHDIRDYEEYDYWGQGTLVTVSS
[5]
  EC50: 0.14 nM
[7]
  EC50: 0.39 nM
[2]
  EC50: 0.2 nM
[3]
  Kd: 6.94 nM
  koff: 0.000763 s⁻¹
[4]
  EC50: 1.96 nM
[6]
  EC50: 1.98 nM

B9: 2B7 VHH-Fc bivalent antibody (antibody, human IgG1, V domains shown)
VH: EVQLVESGGGLVQPGGSLRLSCAASGPLGAPSIAWFRQAPGKGLEFVSGIAWSTGDTYYADSVKGRFTISRDNSKNTLYLQMNSLRAEDTAVYYCAADTSVHYMGRHDIRDYEEYDYWGQGTLVTVSS
notes: also called 2B7-bivalent
[2]
  EC50: 9.79 nM
[3]
  Kd: 3.68 nM
  koff: 0.000398 s⁻¹
[4]
  EC50: 3.11 nM

B10: 4D10 VHH-Fc bivalent antibody (antibody, human IgG1, V domains shown)
VH: EVQLVESGGGLVQPGGSLRLSCAASGPLGYPFIAWFRQAPGKGLEFVSGIAWSTGDTYYADSVKGRFTISRDNSKNTLYLQMNSLRAEDTAVYYCAADTVVHYMGRHDIRDREEYDYWGQGTLVTVSS
notes: as for B1
[1]
  binding result: binds

B11: 1F4B VHH-Fc bivalent antibody (antibody, human IgG1, V domains shown)
VH: EVQLVESGGGLVQPGGSLRLSCAASGPLGTPSIAWFRQAPGKGLEFVSAIAWSQGDTYYADSVKGRFTISRDNSKNTLYLQMNSLRAEDTAVYYCAADTVVHYMGRHDIRDEEEYDYWGQGTLVTVSS
notes: as for B1
[1]
  binding result: binds

B12: 1B7 VHH-Fc bivalent antibody (antibody, human IgG1, V domains shown)
VH: EVQLVESGGGLVQPGGSLRLSCAASGPLGEPSIAWFRQAPGKGLEFVSGIAWSSGDTYYADSVKGRFTISRDNSKNTLYLQMNSLRAEDTAVYYCAADTVVHYMGRHDIRDREEYDYWGQGTLVTVSS
notes: as for B1
[1]
  binding result: binds

B13: 1E6 VHH-Fc bivalent antibody (antibody, human IgG1, V domains shown)
VH: EVQLVESGGGLVQPGGSLRLSCAASGPLGLPSIAWFRQAPGKGLEFVSGIAWSTGDTYYADSVKGRFTISRDNSKNTLYLQMNSLRAEDTAVYYCAADTVVHYMGQHDIRDRVEYDYWGQGTLVTVSS
notes: as for B1
[1]
  binding result: binds

B14: 4E8 VHH-Fc bivalent antibody (antibody, human IgG1, V domains shown)
VH: EVQLVESGGGLVQPGGSLRLSCAASGPLGYPSFAWFRQAPGKGLEFVSGIAWSSGDTYYADSVKGRFTISRDNSKNTLYLQMNSLRAEDTAVYYCAADTVVGYMGRHDIRDLEEYDYWGQGTLVTVSS
notes: as for B1
[1]
  binding result: binds

B15: 4A6B VHH-Fc bivalent antibody (antibody, human IgG1, V domains shown)
VH: EVQLVESGGGLVQPGGSLRLSCAASGPLGYPLIAWFRQAPGKGLEFVSGIAWSDGDTYYADSVKGRFTISRDNSKNTLYLQMNSLRAEDTAVYYCAADTVVHYMGRHDIRDRSEYDYWGQGTLVTVSS
notes: as for B1
[1]
  binding result: binds

B16: 4F5 VHH-Fc bivalent antibody (antibody, human IgG1, V domains shown)
VH: EVQLVESGGGLVQPGGSLRLSCAASGPLGLPSIAWFRQAPGKGLEFVSGIVWSGGDTYYADSVKGRFTISRDNSKNTLYLQMNSLRAEDTAVYYCAADTKVHYMGRFDIRDLEEYDYWGQGTLVTVSS
notes: as for B1
[1]
  binding result: binds

B17: 1C8 VHH-Fc bivalent antibody (antibody, human IgG1, V domains shown)
VH: EVQLVESGGGLVQPGGSLRLSCAASGPLGLPSIAWFRQAPGKGLEFVSGIAWEGGDTYYADSVKGRFTISRDNSKNTLYLQMNSLRAEDTAVYYCAADTVVHYMGRHDIRDYEEYDYWGQGTLVTVSS
notes: as for B1
[1]
  binding result: binds
